Results: the Immune Epitope Database (IEDB)

What was measured:
HLA-A*23:01 = assay: IEDB peptide-MHC binding, purified MHC/direct/fluorescence; filed as Kd, often an IC50 or EC50 that approximates it; ≥ and ≤ were set here for values at or beyond the usual limits of such assays
HLA-A*29:02 [1] = assay: as above
HLA-A*02:16 = assay: as above
HLA-A*02:11 [2] = assay: as above
HLA-A*02:03 [3] = assay: as above
HLA-A*03:01 [4] = assay: as above
HLA-A*68:02 = assay: as above
HLA-A*02:12 [5] = assay: as above
HLA-A*02:19 [6] = assay: as above
HLA-B*57:01 [7] = assay: IEDB peptide-MHC binding, purified MHC/competitive/fluorescence; filed as Kd, often an IC50 or EC50 that approximates it; ≥ and ≤ were set here for values at or beyond the usual limits of such assays
HLA-A*02:01 [8] = assay: as above
HLA-B*18:01 [9] = assay: as above
HLA-B*51:01 [10] = assay: as above
HLA-A*24:03 [11] = assay: as above; details: source organism: Orthohantavirus delgaditoense
HLA-B*27:03 [12] = assay: as above
HLA-A*26:01 [13] = assay: as above
HLA-A*69:01 [14] = assay: as above; details: source organism: Orthohantavirus delgaditoense
HLA-B*39:01 [15] = assay: as above
HLA-B*15:17 [16] = assay: as above
HLA-B*46:01 [17] = assay: as above
HLA-A*29:02 [18] = assay: as above; details: source organism: Campylobacter jejuni subsp. jejuni NCTC 11168 = ATCC 700819
HLA-B*15:01 [19] = assay: as above; details: source organism: Campylobacter jejuni subsp. jejuni NCTC 11168 = ATCC 700819
HLA-A*02:11 [20] = assay: as above
HLA-A*02:03 [21] = assay: as above
HLA-A*03:01 [22] = assay: as above; details: source organism: Campylobacter jejuni subsp. jejuni NCTC 11168 = ATCC 700819
HLA-A*02:12 [23] = assay: as above; details: source organism: Campylobacter jejuni subsp. jejuni NCTC 11168 = ATCC 700819
HLA-A*02:19 [24] = assay: as above; details: source organism: Campylobacter jejuni subsp. jejuni NCTC 11168 = ATCC 700819
HLA-A*02:06 = assay: as above; details: source organism: Human immunodeficiency virus 1
HLA-B*57:01 [25] = assay: IEDB peptide-MHC binding, purified MHC/direct/fluorescence; filed as Kd, often an IC50 or EC50 that approximates it; ≥ and ≤ were set here for values at or beyond the usual limits of such assays; details: source organism: Giardia lamblia ATCC 50803
HLA-A*02:01 [26] = assay: as above; details: source organism: Giardia lamblia ATCC 50803
HLA-B*18:01 [27] = assay: as above; details: source organism: Giardia lamblia ATCC 50803
HLA-B*51:01 [28] = assay: as above; details: source organism: Giardia lamblia ATCC 50803
HLA-B*15:01 [29] = assay: as above; details: source organism: Giardia lamblia ATCC 50803
HLA-A*24:03 [30] = assay: as above; details: source organism: Giardia lamblia ATCC 50803
HLA-B*27:03 [31] = assay: as above; details: source organism: Giardia lamblia ATCC 50803
HLA-A*26:01 [32] = assay: as above; details: source organism: Giardia lamblia ATCC 50803
HLA-A*69:01 [33] = assay: as above; details: source organism: Giardia lamblia ATCC 50803
HLA-B*39:01 [34] = assay: as above; details: source organism: Giardia lamblia ATCC 50803
HLA-B*15:17 [35] = assay: as above; details: source organism: Giardia lamblia ATCC 50803
HLA-B*46:01 [36] = assay: as above; details: source organism: Giardia lamblia ATCC 50803
[37] = source organism: Rio Mearim virus
[38] = source organism: Orthohantavirus delgaditoense
[39] = source organism: Campylobacter jejuni subsp. jejuni NCTC 11168 = ATCC 700819
[40] = source organism: Human immunodeficiency virus 1
[41] = source organism: Giardia lamblia ATCC 50803
[42] = source organism: Toxoplasma gondii

DWMERIEDF
Kd (HLA-A*23:01; [37]): ≥ 20 µM
Kd (HLA-A*29:02 [1]; [37]): ≥ 20 µM
Kd (HLA-A*02:16; [37]): ≥ 20 µM
Kd (HLA-A*02:11 [2]; [37]): ≥ 20 µM
Kd (HLA-A*02:03 [3]; [37]): ≥ 20 µM
Kd (HLA-A*03:01 [4]; [37]): ≥ 20 µM
Kd (HLA-A*68:02; [37]): ≥ 20 µM
Kd (HLA-A*02:12 [5]; [37]): ≥ 20 µM
Kd (HLA-A*02:19 [6]; [37]): ≥ 20 µM
Kd (HLA-B*57:01 [7]; [38]): ≥ 20 µM
Kd (HLA-A*02:01 [8]; [38]): ≥ 20 µM
Kd (HLA-B*18:01 [9]; [38]): ≥ 20 µM
Kd (HLA-B*51:01 [10]; [38]): ≥ 20 µM
Kd (HLA-A*24:03 [11]): ≥ 20 µM
Kd (HLA-B*27:03 [12]; [38]): ≥ 20 µM
Kd (HLA-A*26:01 [13]; [38]): ≥ 20 µM
Kd (HLA-A*69:01 [14]): ≥ 20 µM
Kd (HLA-B*39:01 [15]; [38]): ≥ 20 µM
Kd (HLA-B*15:17 [16]; [38]): ≥ 20 µM
Kd (HLA-B*46:01 [17]; [38]): ≥ 20 µM

FTFERSKIK
Kd (HLA-A*29:02 [18]): ≥ 20 µM
Kd (HLA-B*57:01 [7]; [39]): ≥ 20 µM
Kd (HLA-A*02:01 [8]; [39]): ≥ 20 µM
Kd (HLA-B*18:01 [9]; [39]): ≥ 20 µM
Kd (HLA-B*51:01 [10]; [39]): ≥ 20 µM
Kd (HLA-B*15:01 [19]): ≥ 20 µM
Kd (HLA-A*02:11 [20]; [39]): ≥ 20000 nM
Kd (HLA-B*27:03 [12]; [39]): ≥ 20 µM
Kd (HLA-A*26:01 [13]; [39]): ≥ 20 µM
Kd (HLA-A*02:03 [21]; [39]): ≥ 20000 nM
Kd (HLA-A*03:01 [22]): 200 nM
Kd (HLA-A*02:12 [23]): ≥ 20 µM
Kd (HLA-B*39:01 [15]; [39]): ≥ 20 µM
Kd (HLA-B*15:17 [16]; [39]): ≥ 20 µM
Kd (HLA-B*46:01 [17]; [39]): ≥ 20 µM
Kd (HLA-A*02:19 [24]): ≥ 20 µM

LNTVATLY
Kd (HLA-A*02:01 [8]; [40]): 0.0559 µM
Kd (HLA-A*02:03 [21]; [40]): 291 nM
Kd (HLA-A*02:06): 56.4 nM
Kd (HLA-B*39:01 [15]; [40]): ≥ 20 µM
Kd (HLA-B*15:17 [16]; [40]): 2.75 µM

MHYGYNRAN
Kd (HLA-A*23:01; [41]): ≥ 20 µM
Kd (HLA-A*29:02 [1]; [41]): ≥ 20 µM
Kd (HLA-B*57:01 [25]): ≥ 20 µM
Kd (HLA-A*02:01 [26]): ≥ 20 µM
Kd (HLA-B*18:01 [27]): ≥ 20 µM
Kd (HLA-B*51:01 [28]): ≥ 20 µM
Kd (HLA-B*15:01 [29]): ≥ 20 µM
Kd (HLA-A*02:16; [41]): ≥ 20 µM
Kd (HLA-A*24:03 [30]): ≥ 20 µM
Kd (HLA-A*02:11 [2]; [41]): ≥ 20 µM
Kd (HLA-B*27:03 [31]): ≥ 20 µM
Kd (HLA-A*26:01 [32]): ≥ 20 µM
Kd (HLA-A*02:03 [3]; [41]): ≥ 20 µM
Kd (HLA-A*03:01 [4]; [41]): ≥ 20 µM
Kd (HLA-A*69:01 [33]): ≥ 20 µM
Kd (HLA-A*68:02; [41]): ≥ 20 µM
Kd (HLA-A*02:12 [5]; [41]): ≥ 20 µM
Kd (HLA-B*39:01 [34]): ≥ 20 µM
Kd (HLA-B*15:17 [35]): ≥ 20 µM
Kd (HLA-B*46:01 [36]): ≥ 20 µM
Kd (HLA-A*02:19 [6]; [41]): ≥ 20 µM

SVVEENTMA
Kd (HLA-A*02:01 [8]; [42]): ≥ 20 µM
Kd (HLA-A*02:11 [20]; [42]): 183 nM
